Experimental data from patent US20260167728A1 (published 2026).
Substitutions are numbered along the chain they refer to. Blank lines part the entries; values can stand above or below the binder they belong to.

Experiments:
[1] = molecular target: T1, human EGFR (human, UniProt P00533 25-645, limits assumed); assay: BLI, room temperature
T1 construct: on HT-29 cells in the cytotoxicity assay; also called epidermal growth factor receptor
Method: Each construct was expressed in small-scale and purified. Thermal stability was determined by Differential Scanning Fluorimetry. Melting temperature (Tₘ) determined by Differential Scanning Fluorimetry experiments described herein were performed either in duplicate or triplicate using GloMelt™ dye and QuantStudio5™. GloMelt™ dye undergoes fluorescence enhancement upon binding to hydrophobic regions of denatured proteins. Therefore, the dye can be used to detect protein unfolding or measure thermal stability. GloMelt™ dye is optimized for detection in the SYBR® Green channel of qPCR instruments. The Differential Scanning Fluorimetry experiments were performed in 96-well plates with 10 μg protein/reaction (equal to 0.5 mg/mL final protein concentration), reaction buffer, and GloMelt™ 10× dye according to manufacturer's instructions. Fluorescence of 96-well plates was read and melt curve plots were generated in the QuantStudio5™ qPCR system. Binding affinity was analyzed with bio-layer interferometry at room temperature with human EGFR as the antigen.

[2] = molecular target: T2, human CD3 (human, UniProt P07766 23-126); assay: method not stated
T2 sequence (P07766 23-126 limits assumed): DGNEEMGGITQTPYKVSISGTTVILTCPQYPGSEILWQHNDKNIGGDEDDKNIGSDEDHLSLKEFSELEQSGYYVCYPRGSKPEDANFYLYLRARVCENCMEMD

[3] = molecular target: T1, human EGFR; assay: cell-based or functional assay
[4] = molecular target: T3, huCD3e-mFc (human, UniProt P07766 23-126); assay: Pool 3 screen
T3 construct: not shown: mFc, not described
T3 sequence (P07766 23-126): as the sequence (P07766 23-126 limits assumed) above

[5] = molecular target: huCD3e (human, UniProt P07766 23-126); assay: Octet primary screen, crude lysate
huCD3e, sequence (P07766 23-126): as the sequence (P07766 23-126 limits assumed) above
Method: Stability and affinity of the individually expressed molecules in the form of crude lysate was evaluated by Octet. […] The binding of these anti-CD3 molecules (CD3.227, CD3.228, CD3.229 and CD3.230) to human and cynomolgus CD3 was measured by Octet and the Tₘ was measured by Differential Scanning Fluorimetry. All variants were paired with an anti-PSMA VHH.

[6] = molecular target: T2, human CD3; assay: Octet, crude lysate
Method: Structural considerations included: possible contact disruption, anticipated steric clashes, side chain charge maintenance and possible pockets filling. Stability and affinity of the individually expressed molecules in the form of crude lysate was evaluated by Octet (ForteBio).

[7] = molecular target: T3, huCD3e-mFc; assay: Pool 3 screen, R3
[8] = molecular target: T3, huCD3e-mFc; assay: Pool 3 screen, R2
[9] = molecular target: T2, human CD3; assay: Octet
[10] = molecular target: T4, huCD3e-Fc (human, UniProt P07766 23-126); assay: Octet, purified paTCE
T4 construct: not shown: Fc, not described
T4 sequence (P07766 23-126): as the sequence (P07766 23-126 limits assumed) above
Method: (§1) […] […] The binding of these anti-CD3 molecules (CD3.227, CD3.228, CD3.229 and CD3.230) to human and cynomolgus CD3 was measured by Octet and the Tₘ was measured by Differential Scanning Fluorimetry. All variants were paired with an anti-PSMA VHH.

[11] = molecular target: T5, cyCD3e-Fc (cynomolgus, UniProt Q95LI5 22-117); assay: Octet, purified paTCE
T5 construct: not shown: Fc, not described
T5 sequence (looked up): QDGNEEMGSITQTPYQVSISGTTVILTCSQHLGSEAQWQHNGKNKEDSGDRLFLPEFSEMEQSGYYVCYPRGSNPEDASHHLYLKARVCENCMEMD
Method: as §1

- Kd [1]: 2.3 nM
- Kd [4]: 15.4 nM
- Kd [2]: 203 nM
B2: AC2885 (EGFR.37/CD3.23 paTCE) (bispecific antibody)
scFv 1: DIQMTQSPSSLSASVGDRVTITCQASQDISNYLNWYQQKPGKAPKLLIYDASNLETGVPSRFSGSGSGTDFTFTISSLQPEDIATYYCQHFDHLPLAFGQGTKVEIKGATPPETGAETESPGETTGGSAESEPPGEGQVQLQESGPGLVKPSETLSLTCTVSGGSVSSGDYYWTWIRQPPGKGLEWIGHIYYSGNTNYNPSLKSRVTISVDTSKNQFSLKLSSVTAADTAVYYCARDRVTGAFDIWGQGTLVTVSS
scFv 2: ELVVTQEPSLTVSPGGTVTLTCRSSNGAVTSSNYANWVQQKPGQAPRGLIGGTNKRAPGTPARFSGSLLGGKAALTLSGVQPEDEAVYYCALWYPNLWVFGGGTKLTVLGATPPETGAETESPGETTGGSAESEPPGEGEVQLLESGGGIVQPGGSLKLSCAASGFTFNTYAMNWVRQAPGKGLEWVARIRSKYNNYATYYADSVKDRFTISRDDSKNTVYLQMNNLKTEDTAVYYCVRHENFGNSYVSWFAHWGQGTLVTVSS
notes: EGFR library format (remarks)

- Kd [1]: 4.4 nM
- Kd [2]: ~203 nM
B3: AC2920 (EGFR.72/CD3.23 paTCE) (bispecific antibody)
scFv 1: EIVLTQSPATLSLSPGERATLSCQASQDISNYLNWYQQKPGQAPRLLIYDASNLETGIPARFSGSGSGTDFTLTISSLEPEDFAVYYCQHFDHLPLAFGQGTKVEIKGATPPETGAETESPGETTGGSAESEPPGEGQVQLQQWGAGLLKPSETLSLTCAVYGGSVSSGDYYWTWIRQPPGKGLEWIGHIYYSGNTNYNPSLKSRVTISVDTSKNQFSLKLSSVTAADTAVYYCARDRVTGAFDIWGQGTLVTVSS
scFv 2: B2 scFv 2
notes: EGFR library format (remarks)
- EC50 HT-29 (pM), in vitro cytotoxicity, E:T 5:1 [3]: 85 pM

- Kd [5]: 12.9 nM
B5: AC2717 (CD3.23, WT) (bispecific antibody, V domains shown)
VH: EVQLLESGGGIVQPGGSLKLSCAASGFTFNTYAMNWVRQAPGKGLEWVARIRSKYNNYATYYADSVKDRFTISRDDSKNTVYLQMNNLKTEDTAVYYCVRHENFGNSYVSWFAHWGQGTLVTVSS
VL: ELVVTQEPSLTVSPGGTVTLTCRSSNGAVTSSNYANWVQQKPGQAPRGLIGGTNKRAPGTPARFSGSLLGGKAALTLSGVQPEDEAVYYCALWYPNLWVFGGGTKLTVL
notes: Pool 2 format (remarks); paired with an anti-PSMA VHH variant

- Kd [6]: 8.5 nM
B6: AC3364 (CD3.23-L7, WT) (bispecific antibody, V domains shown)
VH: B5 VH
VL: B5 VL
notes: Pool 1 format (remarks)

- Kd [10]: 131 nM
- koff [10]: 0.0289 s⁻¹
- kon [10]: 220000 M⁻¹ s⁻¹
- Kd [11]: 130 nM
- koff [11]: 0.0312 s⁻¹
- kon [11]: 240000 M⁻¹ s⁻¹
B8: CD3.23 anti-CD3 scFv (scFv, V domains shown)
VH: B5 VH
VL: B5 VL
notes: Parental domain

- Kd [5]: 32.8 nM
B9: AC3682 (CD3.251) (bispecific antibody, V domains shown)
VH: B5 VH with L5V, K19R, A49G, Y55R, Y61T, N87S
VL: B5 VL
notes: Pool 2 format (remarks)

The remaining lines, values behind:

B1: AC2908 (EGFR.60/CD3.23 paTCE) (bispecific antibody)
scFv 1: B3 scFv 1 with A9G, A60D, S77R
scFv 2: B2 scFv 2
notes: EGFR library format (remarks)
- Kd [1]: 7.3 nM
- Kd [2]: ~203 nM
- EC50 HT-29 (pM), in vitro cytotoxicity, E:T 5:1 [3]: 94 pM

B4: AC3471 (CD3.23, WT) (bispecific antibody, V domains shown)
VH: B5 VH
VL: B5 VL
notes: Pool 2 format (remarks)
- Kd [5]: 13.5 nM

B7: AC3768 (CD3.23 control) (scFv, V domains shown)
VH: B5 VH
VL: B5 VL
notes: Pool 3 format (remarks)
- Kd [4]: 4.67 nM
- Kd [7]: 5.6 nM
- Kd [8]: 8 nM
- Kd [9]: 4.67 nM

B10: AC3799 (CD3.295) (scFv, V domains shown)
VH: B5 VH with L5V, K19R, N30S, A49G, S53T, Y55R, D68G, N87S
VL: B5 VL with L69N
notes: Pool 3 format (remarks)
- Kd [4]: 3.11 nM
- Kd [8]: 3.7 nM
- Kd [9]: 3.11 nM

B11: AC3796 (CD3.292) (scFv, V domains shown)
VH: B5 VH with L5V, K19R, N30S, A49G, S53T, Y55R, D68G, N87S
VL: B5 VL
notes: Pool 3 format (remarks)
- Kd [4]: 3.89 nM
- Kd [7]: 3 nM
- Kd [8]: 4.1 nM
- Kd [9]: 3.89 nM

B12: AC3822 (CD3.318) (scFv, V domains shown)
VH: B5 VH with L5V, K19R, N30S, A49G, S53T, Y55R, N57D, D68G, V81L, N87S
VL: B5 VL with G70E
notes: Pool 3 format (remarks)
- Kd [4]: 5.38 nM
- Kd [8]: 5.7 nM
- Kd [9]: 5.38 nM
